Results: US20070048315A1 (SCHERING, published 2007)
Changes are numbered by the printed parent chain. “And” between values parts separate entries of the source, which are not always exact repeats. Identical values can stand only once.

T1: "Non-linked" human IL-23 (human p40 coexpressed in 293T cells with human p19:FLAG-tag peptide) (human, UniProt P29460 23-328)
T1 sequence 1: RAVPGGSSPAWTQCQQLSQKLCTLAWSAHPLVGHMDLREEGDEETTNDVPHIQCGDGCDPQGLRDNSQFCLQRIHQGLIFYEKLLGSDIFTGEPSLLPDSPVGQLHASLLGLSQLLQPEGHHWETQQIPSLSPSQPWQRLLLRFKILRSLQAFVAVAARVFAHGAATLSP
T1 sequence 2: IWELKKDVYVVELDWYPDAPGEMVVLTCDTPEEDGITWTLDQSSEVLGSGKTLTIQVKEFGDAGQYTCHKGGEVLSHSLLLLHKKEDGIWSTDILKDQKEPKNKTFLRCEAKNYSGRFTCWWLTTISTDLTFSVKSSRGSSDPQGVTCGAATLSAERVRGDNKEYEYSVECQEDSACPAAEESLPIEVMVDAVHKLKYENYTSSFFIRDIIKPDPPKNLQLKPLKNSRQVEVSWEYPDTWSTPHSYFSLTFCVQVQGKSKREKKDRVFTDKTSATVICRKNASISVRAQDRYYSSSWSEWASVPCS

T2: non-tagged, non-linked native human IL-23p19/p40 coexpressed in SF9 cells (eBioscience CAT No. 34-8239) (human, UniProt P29460 23-328)
T2 sequence 1: T1 sequence 1
T2 sequence 2: T1 sequence 2

B1: mouse anti-human IL-23p19 antibody 3D7 (antibody, V domains shown)
VH: QVQLQQSGPELVKPGASVKISCKASGYSFTSYYIHWVKQRPGQGLEWIGWIFPGSGNTKYNEKFKGKATLTADTSSTTAYMQLSSLTSEASAVYFCAREGLHYFGLYAMDYWGHGTSVTVSS
VL: DIQMTQTTSSLSASLGDRVTISCSASQGISNYLNWFQQKPDGTVKLLIYYTSSLHSGVPSRFSGSGSGTDYSLTISNLEPEDIATYYCQQYSKLPYTFGGGTKLEIKR
B2: mouse anti-human IL-23p19 antibody 39G2 (antibody, V domains shown)
VH: QVQLQQPGAELVRPGASVKLSCKASGYSFTSSWMNWVKQRPGQGLEWIGMIHPSDSETRTNQKFKDKATLTVDKSSSTAYMQLSSPTSEDSAVYYCARGMITAPTVYWGQGTLVTVSA
VL: DIVLTQSPASLAVSLGQRATISCRASKSVSTSAYSYFHWYQQKPGQPPKLLIYLASNLESGVPARFSGSGSGTDFTLNIHPVEEEDAATYYCQHSRELPWTFGGGTKLEITP
B3: mouse anti-human IL-23p19 antibody 35F12 (antibody, V domains shown)
VH: B2 VH with V12M, K19R, S31T, T60L, K63N, K74R, S84N, T105S
VL: B2 VL with E85G, P112R
B4: mouse anti-human IL-23p19 antibody 7G10 (antibody, V domains shown)
VH: EVQLQQSGPELVKPGASVKMSCKASGYTFTSNVMHWVKQKPGQGLEWIGYINPYNDGTKYNEKFKGKATLTSDKSSSTAYMELSSLTSEDSAVYYCARNWDVAYWGQGTLVTVSA
VL: DIVMTQSPATLSVTPGDRVSLSCRASQSISDYLHWYRQKSHESPRLLIKYASQSISGIPSRFSGSGSGSDFTLSINSVEPEDVGVYYCQNGHSFPFTFGSGTKLEIKR
B5: mouse anti-human IL-23p19 antibody 6H12 (antibody, V domains shown)
VH: B4 VH with Q3H, T30N, S31R, N32Y, V33L, M34I, Y54N, K59N, R98A, V102Q
VL: B4 VL with R37Q, A51T
B6: mouse anti-human IL-23p19 antibody 33B12 (antibody, V domains shown)
VH: QVQLQQSGAELARPGASVKLSCKASGYTFTSYSLKWVKQRTGQGLEWIGEIHPRSGNTHYNEKFKGKATLTADKSSSTAYMDLRSLTSEDSAVYFCATNWDLGYWGQGTTITVSS
VL: B4 VL with M4L, Y36F, R37Q, K39R
B7: mouse anti-human IL-23p19 antibody 13B5 (antibody, V domains shown)
VH: EVQLQQSGPELVKPGASVKMSCKASGYTFTRYLMHWVKQKPGQGLEWIGYINPYNDGTNYNEKFKGKATLTSDKSSSTAYMELSSLTSEDSAVYYCARNWDVGGYWGQGTTLTVSS
VL: B4 VL with R37Q
B8: humanized anti-human IL-23p19 antibody hum7G10 (antibody, human IgG1, kappa, V domains shown)
VH: QVQLVQSGAEVKKPGASVKVSCKASGYTFTSNVMHWVRQAPGQGLEWMGYINPYNDGTKYNEKFKGRVTMTTDTSTSTAYMELRSLRSDDTAVYYCARNWDVAYWGQGTLVTVSS
VL: DIQMTQSPSSLSASVGDRVTITCRASQSISDYLHWYQQKPGKAPKLLIYYASQSISGVPSRFSGSGSGTDFTLTISSLQPEDFATYYCQNGHSFPFTFGQGTKVEIKR
B9: humanized anti-human IL-23p19 antibody hum6H12 (antibody, human IgG1, kappa, V domains shown)
VH: B8 VH with T30N, S31R, N32Y, V33L, M34I, Y54N, D56A, K59N, V102Q
VL: B8 VL with A51T

target: "Elastikine" human IL-23 (single chain FLAG-tag peptide:GLU-tag peptide:human p40:elasti-linker:human p19, … (human, UniProt P29460 23-328)); assay: cell-based or functional assay

Binder | IC50 for blocking of Ba/F3 cell proliferation
B1 | 3 nM
B2 | 9 nM and 5 nM
B3 | 15 nM and 5 nM
B4 | 22 nM and 18 nM
B5 | 11 nM and 9 nM
B6 | 4 nM and 3 nM
B7 | 7 nM and 5 nM

target: "Elastikine" human IL-23 (single chain FLAG-tag peptide:GLU-tag peptide:human p40:elasti-linker:human p19, … (human, UniProt P29460 23-328)); assay: cell-based or functional assay; remark: another data set of the same source

Binder | IC50 for blocking of Ba/F3 cell proliferation
B8 | 29 nM
B9 | 27 nM

target: T1, "Non-linked" human IL-23 (human p40 …); assay: cell-based or functional assay

Binder | IC50 for blocking of Ba/F3 cell proliferation
B1 | 37 nM
B2 | 67 nM
B3 | 73 nM
B8 | 10000 nM
B9 | 4000 nM
B4 | 3000 nM
B5 | 1500 nM
B6 | 193 nM
B7 | 113 nM

target: T2, non-tagged, non-linked native human …; assay: cell-based or functional assay

Binder | IC50 for blocking of Ba/F3 cell proliferation
B1 | 2 nM
B2 | 11 nM
B3 | 12 nM
B8 | 7800 nM
B9 | 3200 nM
B5 | 1300 nM and 500 nM
B6 | 57 nM
B7 | 31 nM
